Assay results: paper PMC6019658 (Protein & Cell, 2017)

Target: the molecule itself
Experiment: cryo-EM structure; single-particle cryo-EM of purified YnaI in amphipols; 20 mmol/L Mes pH 6.5, 200 mmol/L NaCl, 5 mmol/L DTT; 0.1 mg/mL on grids; homoheptamer

B1: YnaI channel (MscS-like mechanosensitive channel of E. coli) (natural protein, UniProt P0AEB5 1-343, looked up)
chain: MIAELFTNNALNLVIIFGSCAALILMSFWFRRGNRKRKGFLFHAVQFLIYTIIISAVGSIINYVIENYKLKFITPGVIDFICTSLIAVILTIKLFLLINQFEKQQIKKGRDITSARIMSRIIKITIIVVLVLLYGEHFGMSLSGLLTFGGIGGLAVGMAGKDILSNFFSGIMLYFDRPFSIGDWIRSPDRNIEGTVAEIGWRITKITTFDNRPLYVPNSLFSSISVENPGRMTNRRITTTIGLRYEDAAKVGVIVEAVREMLKNHPAIDQRQTLLVYFNQFADSSLNIMVYCFTKTTVWAEWLAAQQDVYLKIIDIVQSHGADFAFPSQTLYMDNITPPEQGR
With B1 the “stoichiometry N” value was 7.
